Measured values as given in publication PMC7703809 (ChemMedChem, 2020).
One block for each molecule: values may come before it. Non-standard residues stand in square brackets, D forms with d. Residues, ends and D or L forms follow the SMILES beside them. No end group written: not given here. *: point of attachment. Benzoyl(4-octyl) = CCCCCCCCc1ccc(C(=O)*)cc1; pT = C[C@@H](OP(=O)(O)O)[C@H](N)C(=O)O

What was measured:
PLK3 PBD (335–646) = molecular target: T1, PLK3 PBD (335–646) (Homo sapiens, UniProt Q9H4B4); assay: Fluorescence polarization competitive binding assay, PLK3 PBD
T1 sequence (Q9H4B4 335-646): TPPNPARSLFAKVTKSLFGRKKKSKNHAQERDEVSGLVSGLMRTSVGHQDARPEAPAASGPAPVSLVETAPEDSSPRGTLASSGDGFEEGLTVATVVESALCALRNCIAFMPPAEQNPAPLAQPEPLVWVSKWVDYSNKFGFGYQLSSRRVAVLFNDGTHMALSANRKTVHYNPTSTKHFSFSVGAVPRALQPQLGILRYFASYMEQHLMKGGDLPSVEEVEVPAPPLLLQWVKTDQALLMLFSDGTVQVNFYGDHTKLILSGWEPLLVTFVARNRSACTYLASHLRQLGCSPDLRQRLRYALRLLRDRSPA

PLK1 PBD (367–603) = PLK1 PBD (367–603) (Homo sapiens, UniProt P53350); assay: Fluorescence polarization competitive binding assay, PLK1 PBD; conditions: for Selectivity Index: PLK1 vs PLK3 PBD, accounting for 5-fold difference in tracer affinity
[1] = molecular target: T2, PLK3 fluorescein tracer phosphopeptide (also: fluorescein label, place not given here); assay: fluorescence polarization
T2 chain: GPLATS[pT]PKNG

PBIP phosphopeptide 4 = molecular target: T3, PBIP phosphopeptide 4 (Homo sapiens); assay: fluorescence polarization competition
T3 chain: Ac-PLHS[pT]AI

chimeric peptide 9 = molecular target: T4, chimeric peptide 9; assay: fluorescence polarization competition
T4 chain: Ac-PLHS[pT]PKNG

PBIP phosphopeptide 6 = molecular target: T5, PBIP phosphopeptide 6 (Homo sapiens); assay: fluorescence polarization competition
T5 chain: Ac-PLHS[pT]A

chimeric peptide 8 = molecular target: T6, chimeric peptide 8; assay: fluorescence polarization competition
T6 chain: GPLATS[pT]PNGL

chimeric peptide 3 = molecular target: T7, chimeric peptide 3; assay: fluorescence polarization competition
T7 chain: Ac-PLHS[pT]PNGL

PBIP phosphopeptide 5 = molecular target: T8, PBIP phosphopeptide 5 (Homo sapiens); assay: fluorescence polarization competition
T8 chain: Ac-LHS[pT]AI

FLIP 19 = molecular target: T9, FLIP 19; assay: fluorescence polarization competition
T9 chain: {4‑butylbenzoyl}-S[pT]PNGL

PLK3 consensus peptide 7 = molecular target: T10, PLK3 consensus peptide 7; assay: fluorescence polarization competition
T10 chain: GPLATS[pT]PKNG

Cdc25C phosphopeptide 1 = molecular target: T11, Cdc25C phosphopeptide 1 (Homo sapiens); assay: fluorescence polarization competition
T11 chain: LLCS[pT]PNGL

FLIP 21 = molecular target: T12, FLIP 21; assay: fluorescence polarization competition
T12 chain: {Benzoyl(4-octyl)}-S[pT]PNGL

Chain of PLK1 PBD (367–603) (P53350 367-603): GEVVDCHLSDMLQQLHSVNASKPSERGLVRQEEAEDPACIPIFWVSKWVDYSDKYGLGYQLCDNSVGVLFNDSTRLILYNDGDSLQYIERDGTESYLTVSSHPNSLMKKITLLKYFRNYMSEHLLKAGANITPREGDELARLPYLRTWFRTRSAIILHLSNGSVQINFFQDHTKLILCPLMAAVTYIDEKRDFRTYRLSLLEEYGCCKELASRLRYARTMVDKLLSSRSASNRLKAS

Molecule: CC(C)C[C@H](NC(=O)CNC(=O)[C@H](CC(N)=O)NC(=O)[C@@H]1CCCN1C(=O)[C@@H](NC(=O)[C@H](CO)NC(=O)[C@H](CS)NC(=O)[C@H](CC(C)C)NC(=O)[C@@H](N)CC(C)C)[C@@H](C)OP(=O)(O)O)C(=O)O [Compound 1, LLCS[pT]PNGL] (H-LLCS[pT]PNGL-OH)
IC50 (PLK3 PBD (335–646)): > 600 µM

Molecule: CC[C@H](C)[C@H](NC(=O)[C@H](C)NC(=O)[C@@H](NC(=O)[C@H](CO)NC(=O)[C@H](Cc1c[nH]cn1)NC(=O)[C@H](CC(C)C)NC(=O)[C@@H]1CCCN1C(C)=O)[C@@H](C)OP(=O)(O)O)C(=O)O [Compound 4, Ac-PLHS[pT]AI] (Ac-PLHS[pT]AI-OH)
Selectivity Index (PLK1 PBD (367–603)): 21,133

Molecule: CC[C@H](C)[C@H](NC(=O)[C@H](C)NC(=O)[C@@H](NC(=O)[C@H](CO)NC(=O)[C@H](Cc1c[nH]cn1)NC(=O)[C@H](CC(C)C)NC(C)=O)[C@@H](C)OP(=O)(O)O)C(=O)O [Compound 5, Ac-LHS[pT]AI] (Ac-LHS[pT]AI-OH)
PLK3 PBD FP IC50 (PLK3 PBD (335–646); competition with fluorescein tracer GPLATS[pT]PKNG, maximum 600 μM tested): lost all detectable affinity

Other lines, results leading:

Selectivity Index (PLK1 PBD (367–603)): 20,906
Molecule: CC(=O)N1CCC[C@H]1C(=O)N[C@@H](CC(C)C)C(=O)N[C@@H](Cc1c[nH]cn1)C(=O)N[C@@H](CO)C(=O)N[C@H](C(=O)N1CCC[C@H]1C(=O)N[C@@H](CCCCN)C(=O)N[C@@H](CC(N)=O)C(=O)NCC(=O)O)[C@@H](C)OP(=O)(O)O [Compound 9, Ac-PLHS[pT]PKNG] (Ac-PLHS[pT]PKNG-OH)

PLK1 PBD FP IC50 (PLK1 PBD (367–603); competition with fluorescein tracer MAGPMQS[pT]PLNGAKK, maximum 600 μM tested): almost complete loss of binding
Molecule: LLCSTPNGL [Compound 2]

Kd [1]: 27.2 nM
IC50 (PBIP phosphopeptide 4): 270 µM
IC50 (chimeric peptide 9): 134 µM
IC50 (PBIP phosphopeptide 6): > 600 µM
IC50 (chimeric peptide 8): 6.3 µM
IC50 (chimeric peptide 3): 164 µM
IC50 (PBIP phosphopeptide 5): > 600 µM
IC50 (FLIP 19): > 600 µM
IC50 (PLK3 consensus peptide 7): 2200 nM
IC50 (Cdc25C phosphopeptide 1): > 600 µM
IC50 (FLIP 21): 149 µM
B1: PLK3 PBD 335-646 (protein)
chain: T1 sequence (Q9H4B4 335-646)
